Laboratory results reported in paper PMC10728069.

Key:
GST-MYBS1 (rice) = assay: pull-down; details: buffer not stated
[1] = target: His-MoSPAB1ΔSP (Magnaporthe oryzae) (UniProt G4N0C3); assay: pull-down; details: buffer not stated

## Bsr-d1 promoter 1689 bp
GST-MYBS1 (rice)
  binding signal (fold of bound GST-MYBS1): 0.65
[1]
  binding signal (fold of bound MoSPAB1ΔSP): 1.11
